Test results: a protein production outcome set (Wang et al. 2014)

Test: label from the status in PepcDB records

Row | Sequence | protein production
1 | QVYKAKFGTPNRGWVIIVHGLGEHSGRYSKLVSMLVNEGYAVYTFDWPGHGKSPGKRGHTSVEEAMEIIDFIIEEINDKPFLFGHSLGGLTVIRYAETRPEKIRGVIASSPALAKSPKTPSFMVALAKILGVLLPSLTLSNGIDPNLLSRNPDAVKRYIEDPLVHDRISAKLGRSIFKNMDLAHREAHKIKVPVLLLVGTGDVITPPEGARKLYGEIKVEDKEIVEFEGAYHEIFEDPEWGEEFHKKIVEWIKKH | not failed
2 | VEFSTLPAGPPAPPQDVTVQAGVTPATIRVSWRPPVLTPTGLSNGANVTGYGVYAKGQRVAEVIFPTADSTAVELVRLRSLEAKGVTVRTLSAQGESVDSAVAAVPPELLVPPTPHP | not failed
3 | MEHSNLRKKHNYKFTISTLTLSCLMAFNAQAAVDCSPLEAWDAGKVYNGGEEVKQGTNAYKAKYWTQNNDPATAGEWGAWQDLGVCSGEVPNEAPTVDLTSPSATEQLTTGDLVTLTASAADSDGNIVRVDFSVDGVVISSVTASPYSTTWTALEGNHTISAQSYDDKGAQSTVSSVAINVTNTPTDNIAPTATLSLSATNVELGSVVTLTADAVDSDGTIDKVDFYIDNTLVGTAATAPYTLQYTTTAVGSLSVYAKATDNLGATANSASTNLTVTSSLPVADNCRPDGLYQTEGVTVPYCTIYDKEGREKMGADHPRRVIGYFTSWRDGGDEQNSYLVKDIPWEQLTHINYAFVSIGSDGKVNVGDVTDPNNAATGKEWAGVEIDPALGFKGHFGALATAKAKHGVKTLISIGGWAETGGHFGADGNRVADGGFYTMTTNADGSINHAAIEKFAVSAVEMMRKYKFDGLDIDYEYPTSMAGAGNPDDKEFMEPRRQYLWASYQVLMKTLREKLDVASAQDDIHYMLTIAAPSSGYLLRGMETFDVTQYLDYVNIMSYDLHGAWNDHVGHNAALYDTGKDSELAQWNVYGTEAYGGIGYLNTDWAYHYFRGSMPAGRINIGVPYYTRGWQGVTGGENGLWGRAPLPDQAKCEPGTGEGEKNNCGYGALGIDNMWHDKNSYGQEMGAGSNPMWHAKNLQEGIFGSYANIYGLDPANDPADQLVGTYTRHYDSVAVAPWLWNAEKKVFLSTEDKDSINVKADYVIDQEIGGIMFWELAGDYSCYVLDSNGNRTSVDATEAACQTGNGEYHMGNTMTKAIYEKFKSATPYGNTVATGAIPTETVDIAVNVGGFKVGDQNYPINPKVTFTNNTGQDIPGGTEFQFDIPVSAPDNAKDQSGGGLQVIASGHTRPNNIGGLDGTMHRVAFTLPAWKALPAGGVYELDMVYYLPISGPANYTVNINNVDYAFKFEQPDLPLADLSSGGNNGGNGGTPDAGCDATGLVTYPDLPQKDWAGNPSHANTGDQVVHNNVIYQANWWTAAEPGSDGSWTKVCNL | failed
4 | SDRGQAEEAAGRQARAVSLAIADSPSVAEAIRTPDPTALLQPYAVRVMRDTDVDFVTIMNPEGIRWTHPEPTEIGHLFQGHIERAQRGQTFTETYTGTLGPSVRAVTPIVDDGRIVGLVSAGIKVEEIS | failed
5 | MMNRVILVGRLTKDPDLRYTPNGVAVATFTLAVNRAFANQQGEREADFINCVIWRKQAENVANYLKKGSLAGVDGRLQTRNYEGQDGKRVYVTEVLAESVQFLEPRNGGGEQRGSFNQQPSGAGFGNQSSNPFGQSSNSGNQGNQGNSGFTKNDDPFSNVGQPIDISDDDLPF | failed
6 | MSLNGKTMFISGASRGIGLAIAKRAAQDGANIALIAKTAEPHPKLPGTVYTAAKELEEAGGQALPIVGDVRDPESVEAAVAKTVEQFGGIDICVNNASAINLGPITEVPMKRFDLMNGIQVRGTYAVSQACIPHLKGRENPHILTLSPPVLLGKEWLKPTAYMMAKFGMTLCALGIAEEMREAGIASNTLWPRTLVATAAVQNLLGGDEAMGRARKPEVYSDAAYVILNKPAREFTGNMLLCEDVLVESGVTDLSVYNCVPGSQLGVDFWVDGVNPPGYTGP | failed
7 | MKIDVVTIFPAYLDPLRQSLPGRAIASGLVDLQVHDLRRWTYDVHHSVDDSPYGGGPGMVMKAPVWGEALDEICSAETLLVVPTPAGSLFDQATAQRWSAEQHLVFACGRYEGIDQRVAEDSARRMRVEEVSIGDYVLPGGESAAVVMIEAVLRLLTGVLGNPASHQEDSFSPELDRLLEGPSYTRPPSWRGLDVPEILLSGDHARIATWRREVSLRRTRERRPDLAPPE | failed
8 | MTVDAATSAEVSQRVLAYLVEQLGVDVSFLRHNDRDRRATRLVAEWPPRLNIPDPDPLRLIYFADADPVFALCEHAKEPLVFRPEPATEDYQRLIEEARGVPVTSAAAVPLVSGEITTGLLGFIKFGDRKWHEAELNALMTIATLFAQVQARVAAEARLRYLADHDDLEHHHHHH | not failed
9 | MDPIESVEYNGFETSNGNVDHGWKKVVYPKRHRKQKQADQATANGGKTVASNGTVANGGDNVFRSLEEQAEDRRRRILAAKMTAIDSDDDGVVRSKHRSNGYGDDGYDFDGSDDEIATLKVEEVKKPKPKKEKKPKVSLPEAASKIDPLNLEAFLVEASESYASQPEIQLMRFADYFGRALSGVSSVQFPWVKMFKESPLSKLIEVPLAHIPEPVYKTSVDWINHRPIEALGAFVLWAFDCILTDLAAQQGGAKGGKKGGQQTTSKSQVAIFVALAMVLRRKPDALTNVLPTLRENPKYQGQDKLPVTVWMMAQASQGDIAVGLYSWAHNLLPVVGNKNCNPQSRDLILQLVEKILTNPKARTILVNGAVRKGERLIPPPSFEILLRLTFPASSARVKATERFEAIYPLLKEVALAGAPGSKAMKQVTQQIFTFALKLAGEGNPVLAKEATAIAIWSVTQNFDCCKHWDNLYKENLEASVAVLKKLVEEWKEHSVKLSSSPNDALTLNRTMKSFRLKNEEVITEGGANASLYKEADKSCKTISGRLSRGSGCLKGTAITLVFLAAAGAAAAAVLSSNPEVTNELKNLVDSLELHEYINKYTEVISTALKK | failed
10 | MKKILLSLITAAVLLSCQSSRDTSHKYTAITPGVEWLDTNNEKINAHGGGILYHEGIYYWYGECKSDSTYWNPNVPGWECYRTEAGGVNCYSSKDLLNWKYEGLVLQPEISDTQSDLHPSKVLERPKVIYNDKTKKFVMWLHVDSDDYNKAAAGVAVSDSPTGVFTYLGSMHPNGQISRDMTLFKDDDGKAYHIYSSEQNSTLYISLLSDDYLKPSGTFTRNFAGKFREAPAVFKHNGLYYVISSGCTGWSPNEAEYAVATQILGPWTVKGNPCVGKDADKTFYGQSTHVLPIQGKKDAYIAMFDKWNKTDLIHSTYIWLPIQFREDGSMAIQWLDSWSPDTYEF | failed
11 | MNDFTFRCERPSLRLFAAAVVAVLLGLAPASSESVRKSGYAIGTESCGSGDLAFPRLQIDMKAGFCAGLVASEEDRLKFPRSIVQVPGRDLFVVADMGGWGHTDGRLLLLDPHAPPGQRFKELLTGLEYPFGLVIGPDRKLYASTAEAIFRFDPLADNPRGTVETIIRHMPGRRITLPDGTRLDESAHPLKQFVFDRNGRLFVNVGSHSDDCITPAPITKPCAAAEGASAMAAIWLFTPPSGGVFPALRPNDPDPPHTVYARGLRNSMALALHPNFPDAGYAFLQGENGRDLPDIFKPNEEINAIEQGRHYGWPYCYDLSTPSPEFRSVLQSGTYKSLCTANALYKPPFSLLPPHGAPLAMLYYHGAKFPELEGKLLVGLHGYRPTGSRVLAYDVDDHGFPRPSPAPVRYHVSCAADPTHSFQTDAGEVAAAPFEELIAGWHRVNGARPQGAPVGMTVAEDGAIWLVEDKNQTVIRIDRAAGDAPQPLPCDTRSQAMIDQLAAFIARDAQNSVRLTTLRKGLVEKHCLGCHSDFGLKAGQSEAEKDATVLRFMLSQDGWIYPGDPDSGRLRTRLRGLGAEKLMPPGGESLPKTEPGYARLLDTADLLVARMVPGTRIRIKAGPPQRRFFGKTNKECGEIPAAKVVVVTQRSAVDKPGFSRFFRPADPYLNGECTDDDGYYIRQEFLVPVQ | failed
12 | DVDIQLVSSNNINDYLHVYDAFARPFGDSYANMVKQHIYSSYNLDDIERLVAYVNHQPVGIVDIIMTDKTIEIDGFGVLEEFQHQGIGSEIQAYVGRMANERPVILVADGKDTAKDMYLRQGYVYQGF | failed
13 | MVDDNTDQSLSFGRLLFGAGLALQASEDFREMDETVEYAESAGVPVPDVLAPLASGMMLVGGIGVALWRFPRIATGAVVTFLAVVTPTMHDFWNAEPGDRSGERLAFFGNLAMLGAALAYLRKAYR | failed
14 | MNLPFAPQSFAALLVMVMTLAHGSVSAQESFRVELGRDGETLGDMRPVFLKFESRPLPAISPLEVARRYQKLFESSDEPEVRIDALNRLNNIRNRSGEDVGFSEEREAAIYEEVLESYESILAKGSFSGRLDELLYQMAKAHALTGQPEQSIARLKQLVGLYPNSELVPEARFRIAEAAFSAGRYAEAEAGYRQLLEHDSHQELAAKARYMLGWSQFKQGNPAWARASASFTAVLDQQLPDHSALANPPAHSMDMLEDTFRVLALMASRQSDARTLADWLDGRESSAWQHLLYDRLADLHAVERRYERAVLVNNAFVSEFPGHTASPDFLAQSVSYWQLAGNTSKALAARDDYIQRLGAEARFQTMTPEQKGLWAQYSRFLADHYYATGTDLSSRNQTAAASEAWAKAAHYYERLAPRSEQAGELLHLAGDARLLAGDRTEAVRNFRAAAYDHRHGDSRDSAWAAIRIVREDLELASGENRTATLLVLSNEEQRYAEAFGPDQRLSGLRADLANRWYDLGEFERALHYASSTLTWERAGVTERYAAWLVTARIRQKNNEFGLAERAWRQALPLADEASQDAESQRRSLLEQLASAIYQQGEKAARAGDATLAVAHFQRVEGVMPGSEIAIKARYDAANTLLRASDWLAAINELQRFRIDYPSHELTPETSEKLVLAYQESGQGLKAAEELLNRSETLADPWPTRLRAAAIFHAEGDSASRNQLYKNWLAVAPTPDSADEHVQHQTMRQRLIESGDSVIAVREQLLARERASQWHSDGTLKWAADAALFFGAQTAERFAGIALVHPLEQALARKQAAMQQAQEYLQEAESFAGDGVRSEVLYRRAELYRTLASDLMSSEVPAELNEMEAMQYQMLLEEEAFPLEEEAMALHARNHERIPTEGFDEWIQRSLEALATMHPGRYDRQLRWMSWTTDTNQGGS | failed
15 | MSSNNVTTDVVSVDEQAFENAGGQAVDEDGFPVVDETPAFEAEVEQETQAKVDANHPDGIADTSEDRIHGVTLEQEERIRAREAELERISAQAELGTQDGREQRTRAVAAEGSTERRREFQQRAASVEPMADPERDDPRAELSQDELATVNTEADRLATRLDGWSRAAISRRLAEAIVDGRDLTSAVVRVFEELQTAPGGTVPIDALEDIDRKEVSVEGRVTQLWEPSSPSIAQVGLIEDESGRTKLTSWKASDAPWIEEGERVRIHGAAKNWYNGRVSVAVTGWSTLHFPERGRWWDE | failed
16 | MSKQSVKKIISFSLTIIIAIVMLGLLKNLFSQSDDKALSEAIRNGAFLVDVRTPGEFASGSVAGAVNIPLDRIASRLNELKNKKTIIVFCRSGNRSSQAKSILERNGFSNVLDGGTWGHVASLKGDQ | failed
17 | MELGFPLLWLSLVLPVLASLTIVALPPRTAYWLVAITLAIPGIVSSYYAFQGVLSEGIIDPVSLNLSNIGIGVVALAVDGFSYPFVLGVSVVTALVAVYGYKYMEVRLREMEGEGERAPGHAAYLILYSIFSSTMLGIAYSLNFLLFIIFLELSLLSSFLLIAFYGYGDRRRIALLYFVWTHIAGALALLGGLYYVIKTGTFDVATVEGGRIVYFSSPADRSVYAAIAGVSLLLGMLVKMAVFGVHMWLPYAHAEAPTPISALLSPNLIGLGGYGIARFAAAFYPWLLEDLKPLLVGLAFVTIVYGGLVALSQLDFKRLLAYSSISQMGYMLLALSTLHPLGFAAASLIFLGHAVGKAVLFMTAGVFITEAHGLRNIARMGGLARLYPLTAAAALIGFLHLAGIPPAFGFWGELYLTLSVLNYPGYSDAVSLGLLAIILIVAFTVTAAYSFITMRRIFFGRPRADMDAREEVDGFKSTVVLLAVLGVALFLLAGPMVTDLAASSLAMVEAFLS | failed
